Drawing on FireProtDB (doi:10.1021/bi00252a018), this text covers Tm for one protein.

For the data set the following is noted: Streptomyces albogriseolus, Thermal, DSC, reversible: yes (70-85%), whole UniProt chain shown.

B1: Subtilisin inhibitor wild type, P01006 (protein)
chain: MRNTGAGPSPSVSRPPPSAAPLSGAALAAPGDAPSALYAPSALVLTVGKGVSATTAAPERAVTLTCAPGPSGTHPAAGSACADLAAVGGDLNALTRGEDVMCPMVYDPVLLTVDGVWQGKRVSYERVFSNECEMNAHGSSVFAF
On to B1, for which the Tm (pH 2.9, glycine 25 mM) turned out to be 44.5 °C; the Tm (pH 2.94, glycine 25 mM) was determined as 43.9 °C; the Tm (pH 2.98, glycine 25 mM) worked out at 45.4 °C; the Tm (pH 3.03, glycine 25 mM) worked out at 47.8 °C; the midpoint of thermal melting (Tm) (pH 3.04, glycine 25 mM) was 47.6 °C; the Tm (pH 3.07, glycine 25 mM) was determined as 48.8 °C. Moreover, the midpoint of thermal melting (Tm) is, setting by setting: (pH 3.12, glycine 25 mM) 50.5 °C; (pH 3.15, glycine 25 mM) 51.3 °C; (pH 3.16, glycine 25 mM) 52.2 °C; (pH 3.2, glycine 25 mM) 53.6 °C; (pH 3.21, glycine 25 mM) 53.4 °C; (pH 3.24, glycine 25 mM) 54.3 °C. Further, the Tm was determined as 55.7 °C (pH 3.25, glycine 25 mM); 82 °C (pH 7, phosphate 25 mM); 80.1 °C (pH 9.2, glycine 25 mM); 80.2 °C (pH 9.75, glycine 25 mM).

The Tm is the temperature at the midpoint of the melting transition.
